# B1: Dpr10 (Defective proboscis extension response 10), extracellular region [Drosophila melanogaster] / DIP-α (Dpr Interacting Protein alpha), extracellular region [Drosophila melanogaster] (parent)
# chain 1: MLTLWTALFCCLTGLAVCYQRQSVSNNNHNNAEAKPTHAPPSHYPHGHKWNEPYFDLTMPRNITSLVGKSAYLGCRVKHLGNKTVAWIRHRDLHILTVGTYTYTTDQRFQTSYHRDIDEWTLQIKWAQQRDAGVYECQISTQPVRSYSVNLNIVVPTATILGGPDLYVDKGSTINLTCIIKFSPEPPTHIFWYHQDKVLSEETSGGRLKFKTIKSEETKSILLIYDADLLHSGKYSCYPSNTEIASIRVHVLQGERPEAMQTNAAPAAVALACWSCHFGQATQAVRVISTMVAALVLLEACSSLLLQSGGGGGCPGGGSPAGGMPTRVREIREKPLTNSLLDPKIPSTTSAERVNNGSRNAR
# chain 2: MPVSAKRLLRNFQFTSCDRNGKMLIHLLLIVSLLEAIGAFQPEFVESISNVSVAVGRDATFTCHVRHLGGYRVGWLKADTKAIQAIHENVITHNPRVTVSHLDQNTWNLHIKAVSEEDRGGYMCQLNTDPMKSQIGFLDVVIPPDFISEDTSSDVIVPEGSSVRLTCRARGYPEPIVTWRREDGNEIVLKDNVGTKTLAPSFRGEVLKLSKISRNEMGSYLCIASNGVPPSVSKRISLSIHFHPVIQVPNQLVGAPLGTDVQIECHVEASPKSINYWIKDTGEMIVTSGKYHVQESSQSMYETKMSMIVRKFQKDDVGSYRCIAKNSLGEVDSSIRLYEIPGPNRNKNPLNGGGKGGGAGGSLDADANDILKQKQQVKVTYQPEDEELQYGSVEDFEAEGGEGGGLTPLSPHVYYTSGNKPATHKPGNSGGNQHLHQQHHHHHHHNNNNNNQQHSGGPGGGPTGGDAGSLGGEMGGITRKPPPYYGGNTEVRGPIDNNEMSSGSGDSRLCRGHHLPILLLPFARLILVRSWHCRHTFLMGLSQACLPGLLLSLL
# Variants of: B1
# Assay: SPR
# Settings: with DIP-α (Dpr Interacting Protein alpha), 25 °C, 10 mM Tris-HCl, pH 7.2, 150 mM NaCl, 1 mM EDTA, 1 mg mL−1 BSA, 0.01% (v/v) Tween-20, analyte 81 to 0.012 μM, three-fold dilution series, parent: 0
row,Variant,ddG [kcal/mol]
1,chain 1 L93G Q142E V144K,> 3.5

# From publication PMC7195491
